System: MS2 coat protein
Assay: apparent KD of MS2 coat protein; designed switch direction (-1 OFF switch, 1 ON switch): -1; higher = weaker reporter binding
Outline: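 RNA switches sharing common flanks were transcribed by stalled E. coli RNA polymerase on Illumina chips. A doubling series of SNAP-549-labelled MS2 coat protein, from 0.7 or 1.5 nM to 3 µM, was applied in Tris-HCl pH 7.5 buffer with KCl, MgCl2, BSA, DTT, tRNA and Tween-20. Each step lasted 0.8–1.5 h at the bottom of the series and 10–20 min at the top. Normalised cluster fluorescence was curve-fitted, giving apparent KD as the per-design median over clusters.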

[1] = input ligand: microRNA oligo, concentration not stated
[2] = Eterna round: R95, input ligand: FMN 200 uM
[3] = Eterna round: R95, input ligand: microRNA oligo, concentration not stated
[4] = Eterna round: R95, input ligand: none

Sequence: CAUGAUUGACGAGGAUAUUGUUCUACAUCACGACGAGAAGGCGUCUGUCACAUGAGGAUCACCCAUGUGAGACUGGUGAAUGAG [Ex NG1 #81] (Eterna round: R96, puzzle: Exclusion NG 1)
- apparent KD of MS2 coat protein (input ligand: FMN 200 uM): 36.4 nM
- apparent KD of MS2 coat protein [1]: 17.1 nM
- apparent KD of MS2 coat protein (input ligand: none): 20.4 nM

Sequence: CAUGCUUCGGCAUGUACAAGCUUUUUGCUCGUCUUAUUAACAUGAGGAUCACCCAUGUCAAAGAGACCUCAUGUAUU [Sensor v3 - turn-off variant 2 - 3] (puzzle: Sensor v3, turn-off variant 2)
- apparent KD of MS2 coat protein [2]: 356 nM
- apparent KD of MS2 coat protein [3]: 16 nM
- apparent KD of MS2 coat protein [4]: 263 nM

Sequence: CAUGCUUCGGCAUGUACAAGCUUUUUGCUCGUCUUAUUAACAUGAGGAUCACCCAUGUUAAUGAGACCUCAUGUAUU [Sensor v3 - turn-off variant 2 - 8] (puzzle: Sensor v3, turn-off variant 2)
- apparent KD of MS2 coat protein [2]: 13.6 nM
- apparent KD of MS2 coat protein [3]: 16.7 nM
- apparent KD of MS2 coat protein [4]: 11.4 nM

Sequence: CAUGGCACGUAGGAUAUCUCGCAGCCCGGCUGCAGAGAAGGACGUACAUGAGGAUCACCCAUGUAUGAUCCAAA [Laquus] (puzzle: Exclusion 6)
- apparent KD of MS2 coat protein [3]: 24.1 nM

Sequence: CAUGGGUGUGAGCCGCAUUACAUGAGGAUCACCCAUGUCAACAAGCUUUUUGCUUGUCUUACGCGGCGGCACCAAAA [Bimaus] (puzzle: Sensor v3, turn-off variant 1)
- apparent KD of MS2 coat protein [2]: 17.4 nM
- apparent KD of MS2 coat protein [3]: 9.65 nM
- apparent KD of MS2 coat protein [4]: 14.9 nM

Sequence: CAUGUCCAACGAGGAUAUGGGACAGGAAGUGUACCAGAAGGCGUACGGACAUGAGGAUCACCCAUGUCGCGCGGUGCGAUGUGG [MOD Nando EXNG 1.1] (Eterna round: R96, puzzle: Exclusion NG 1)
- apparent KD of MS2 coat protein (input ligand: FMN 200 uM): 47 nM
- apparent KD of MS2 coat protein [1]: 23.8 nM
- apparent KD of MS2 coat protein (input ligand: none): 91.7 nM

Sequence: CAUGUGUAAGGAUAUGACAAUGGUAUCGAAAGAUACCAUUGUCAGAAGGUACAUGAGGAUCACCCAUGUAGAUC [Ex4-3: 19] (puzzle: Exclusion 4)
- apparent KD of MS2 coat protein [2]: 342 nM
- apparent KD of MS2 coat protein [3]: 60.8 nM
- apparent KD of MS2 coat protein [4]: 86.3 nM

Sequence: CAUUAAACGGAGGAUAUCCUAUAUAUAAUAAUAGGAGAAGGUCGUACAUGAGGAUCACCCAUGUGUGGACAUGG [something] (puzzle: Exclusion 6)
- apparent KD of MS2 coat protein [2]: 107 nM
- apparent KD of MS2 coat protein [3]: 206 nM
- apparent KD of MS2 coat protein [4]: 249 nM

Sequence: CAUUAUGUUGAGGAUAUGCGCCGGAAAACUGACGCAGAAGGCGACACAUGAGGAUCACCCAUGUCAGUUUUCGA [salish99_ex6_r004_426] (Eterna round: R97, puzzle: Exclusion 6)
- apparent KD of MS2 coat protein (input ligand: FMN 200 uM): 136 nM
- apparent KD of MS2 coat protein (input ligand: none): 273 nM

Sequence: CAUUAUUAUCGAGGAUAUCCUAUUGAAAUUCUGGGAGAAGGCGGACUCAACAUGAGGAUCACCCAUGUGGGACGGAUGCUAGGC [salish99_exng1_r04_601] (Eterna round: R96, puzzle: Exclusion NG 1)
- apparent KD of MS2 coat protein (input ligand: FMN 200 uM): 14.2 nM
- apparent KD of MS2 coat protein [1]: 15.6 nM
- apparent KD of MS2 coat protein (input ligand: none): 19.3 nM

Sequence: CAUUGUUAUCGAGGAUAUCCUAUUGAGAUUCUAGGAGAAGGCGGACUAAACAUGAGGAUCACCCAUGUGGGACGGAUGCUAGGG [Ex NG1 #30] (Eterna round: R96, puzzle: Exclusion NG 1)
- apparent KD of MS2 coat protein (input ligand: FMN 200 uM): 31.4 nM
- apparent KD of MS2 coat protein [1]: 19.8 nM
- apparent KD of MS2 coat protein (input ligand: none): 25.2 nM

Sequence: CCAAACAGAGGAUAUGCGAAUAAAUAAAACUUUUUUUUUUAACAUGAGGAUCACCCAUGUAGAAGGCUGCAACC [Ex2 #40] (Eterna round: R97, puzzle: Exclusion 2)
- apparent KD of MS2 coat protein (input ligand: FMN 200 uM): 24.4 nM
- apparent KD of MS2 coat protein (input ligand: none): 19.5 nM

Sequence: CCAAAGUCAGGAUAUACAUGAGGAUCACCCAUGUAAAAUUUUAAUUUAAUUUGAAGGUGUAGAAGGGACAAACC [Ex3 #32] (Eterna round: R97, puzzle: Exclusion 3)
- apparent KD of MS2 coat protein (input ligand: FMN 200 uM): 30.5 nM
- apparent KD of MS2 coat protein (input ligand: none): 30.3 nM

Sequence: CCAAGAAUAGGAUAUACACCAUGUCAGCUUCUAUACAUCGCACAUGAGGAUCACCCAUGUAGAAGGGUUCUCUC [Exclusion-2-#4] (Eterna round: R97, puzzle: Exclusion 2)
- apparent KD of MS2 coat protein (input ligand: FMN 200 uM): 369 nM
- apparent KD of MS2 coat protein (input ligand: none): 282 nM

Sequence: CCAAGCAAAAUCAUUAACAACAUGAGGAUCACCCAUGUGUAAGCAAUUAUGUUUGGGCUCUUUAGAGCUCGUCUUAU [JR_STOV1_Sub044] (Eterna round: R97, puzzle: Sensor, turn-off variant 1)
- apparent KD of MS2 coat protein (input ligand: FMN 200 uM): 13.5 nM
- apparent KD of MS2 coat protein (input ligand: none): 14.2 nM

Sequence: CCAAGCUGUGUGAGGAUAUGCUGAACCUUGGUUCAGCAGAAGGCACAUGAGGAUCACCCAUGUGAAGAGCUUGG [Mat - Exclusion 4 - JL Mod - D96] (puzzle: Brourd's mod of Exclusion 4)
- apparent KD of MS2 coat protein [3]: 16.6 nM

Sequence: CCAAGCUUAUUCAUUAACAACAUGAGGAUCACCCAUGUGUAAGCAAUUAUGUUUGGGCUCUUUAGUGCUCGUCUUAU [Sensor-V1 #21] (Eterna round: R97, puzzle: Sensor, turn-off variant 1)
- apparent KD of MS2 coat protein (input ligand: FMN 200 uM): 13.7 nM
- apparent KD of MS2 coat protein (input ligand: none): 13.9 nM

Sequence: CCAAGCUUAUUCAUUAACAACAUGAGGAUCACCCAUGUGUAGGCAAUUAUGUUUGGGCUCUUUAGUGCUCGUCUUAU [Sensor-V1 #22] (Eterna round: R97, puzzle: Sensor, turn-off variant 1)
- apparent KD of MS2 coat protein (input ligand: FMN 200 uM): 14.7 nM
- apparent KD of MS2 coat protein (input ligand: none): 14.7 nM

Sequence: CCAAGCUUAUUCAUUAACCACAUGAGGAUCACCCAUGUAUAGGCAAUUAUGACUGGGCUCUUUGGUGCUCGUCUUAU [Sensor-V1 #26] (Eterna round: R97, puzzle: Sensor, turn-off variant 1)
- apparent KD of MS2 coat protein (input ligand: FMN 200 uM): 11.5 nM
- apparent KD of MS2 coat protein (input ligand: none): 11.7 nM

Sequence: CCAAGCUUAUUCAUUAACCACAUGAGGAUCACCCAUGUCUAGGCAAUUAUGACUGGCCCAUCUGGUGCUCGUCUUAU [Sensor-V1 #31] (Eterna round: R97, puzzle: Sensor, turn-off variant 1)
- apparent KD of MS2 coat protein (input ligand: FMN 200 uM): 20.9 nM
- apparent KD of MS2 coat protein (input ligand: none): 20.8 nM

Sequence: CCAAUGUAAGGAUAUGACAAUGGUAUCUUCGGAUACCAUUGUCAGAAGGUACAUGAGGAUCACCCAUGUACAAA [Ex4-3: 9] (puzzle: Exclusion 4)
- apparent KD of MS2 coat protein [3]: 13.4 nM

Sequence: CCACGACAUGAGGAUCACCCAUGUGAGGAUAUGACCUGAAAAGCGUGAGCAGUUUGUAUCAGAAGGCGCGUGGG [salish99_ex1_r4_066] (Eterna round: R97, puzzle: Exclusion 1)
- apparent KD of MS2 coat protein (input ligand: FMN 200 uM): 54.4 nM
- apparent KD of MS2 coat protein (input ligand: none): 67.4 nM

Sequence: CCACGACAUGAGGAUCACCCAUGUGAGGAUAUGGCCUGAAAAGCGUGAGCUGAAUCAAUCAGAAGGCGCGUGGG [salish99_ex1_r4_059_4A's] (Eterna round: R97, puzzle: Exclusion 1)
- apparent KD of MS2 coat protein (input ligand: FMN 200 uM): 109 nM
- apparent KD of MS2 coat protein (input ligand: none): 42 nM

Sequence: CCACGUCCGUACGUAUACUUGUCUCCUGAAAGAAAGGGCACAUGAGGAUCACCCAUGUUUUUGCUCGUCUUAUGAGC [JR_Sensorv2_tov2_Sub714] (Eterna round: R96, puzzle: Sensor v2, turn-off variant 2)
- apparent KD of MS2 coat protein (input ligand: FMN 200 uM): 20.4 nM
- apparent KD of MS2 coat protein [1]: 40.9 nM
- apparent KD of MS2 coat protein (input ligand: none): 22.8 nM

Sequence: CCAGAAUGUGUCAGGAUAUCGGGUACCAAUAGCUUCGAGAAGGGACAUGAGGAUCACCCAUGUUCUCGGAGAGA [Eternabot (L2) Solution 76] (Eterna round: R97, puzzle: Brourd's mod of Exclusion 4)
- apparent KD of MS2 coat protein (input ligand: FMN 200 uM): 20.5 nM
- apparent KD of MS2 coat protein (input ligand: none): 18 nM

From the supplement of paper PMC9170038
